For four molecules, Km and kcat results are on record in paper PMC10495429, “Discovery of L-threonine transaldolases for enhanced biosynthesis of beta-hydroxylated amino acids” (Communications Biology, 2023).

One series relates to T1, PbTTA.
T1 construct: N-terminal hexahistidine-SUMO tag with TEV site kept (screen done with SUMO fusion intact), E. coli BL21
Kind of series: TTA-ADH coupled assay (NADH depletion at […] nm), non-linear regression. Type of series: biochemical. The note with it: 1 mM phenylacetaldehyde (non-saturating), PLP, MgCl2, phosphate pH 7.5, 30 °C; read-out: apparent KM.

For a further series, the system named is C[C@@H](O)[C@H](N)C(=O)O. Kind of series: purified protein. Particulars: 1 mM phenylacetaldehyde (non-saturating), PLP, MgCl2, phosphate pH 7.5, 30 °C.
Substrate in the series “purified protein”: C[C@@H](O)[C@H](N)C(=O)O
Kind of series: purified protein. Type of series: biochemical, Pseudomonas fluorescens. The note with it: 1 mM phenylacetaldehyde (non-saturating), PLP, MgCl2, phosphate pH 7.5, 30 °C.

Regarding `C[C@@H](O)[C@H](N)C(=O)O` [L-Thr], the Km in the series on PbTTA was found to be 10.9 mM.

For the molecule PiTTA (Pseudomonas sp. Irchel s3a18), in the series with C[C@@H](O)[C@H](N)C(=O)O, the Km was 35.8 (21.0, 41.5) mM and the kcat is listed as 276.4 (260, 294.7) min-1.

As for s-KaTTA (Kitasatospora aureofaciens), in the series on C[C@@H](O)[C@H](N)C(=O)O, the Km is listed as 19.1 mM.

B1: ObiH (Pseudomonas fluorescens) (protein)
chain: MSNVKQQTAQIVDWLSSTLGKDHQYREDSLSLTANENYPSALVRLTSGSTAGAFYHCSFPFEVPAGEWHFPEPGHMNAIADQVRDLGKTLIGAQAFDWRPNGGSTAEQALMLAACKPGEGFVHFAHRDGGHFALESLAQKMGIEIFHLPVNPTSLLIDVAKLDEMVRRNPHIRIVILDQSFKLRWQPLAEIRSVLPDSCTLTYDMSHDGGLIMGGVFDSPLSCGADIVHGNTHKTIPGPQKGYIGFKSAQHPLLVDTSLWVCPHLQSNCHAEQLPPMWVAFKEMELFGRDYAAQIVSNAKTLARHLHELGLDVTGESFGFTQTHQVHFAVGDLQKALDLCVNSLHAGGIRSTNIEIPGKPGVHGIRLGVQAMTRRGMKEKDFEVVARFIADLYFKKTEPAKVAQQIKEFLQAFPLAPLAYSFDNYLDEELLAAVYQGAQR
notes: N-terminal hexahistidine tag, expressed in E. coli BL21, codon-optimised gene; tag kept
In the case of B1, the Km in the series “purified protein” came to 29.5 mM.
